Measured values published in patent US20240132603A1 (HARBOUR BIOMED US, published 2024).

Tests used:
CD40LG = molecular target: T1, CD40LG (UniProt P29965 1-261); experiment: flow cytometry, HEK293-CD40LG cells
T1 construct: whole, on cells; also called HEK293-CD40LG
T1 sequence (looked up): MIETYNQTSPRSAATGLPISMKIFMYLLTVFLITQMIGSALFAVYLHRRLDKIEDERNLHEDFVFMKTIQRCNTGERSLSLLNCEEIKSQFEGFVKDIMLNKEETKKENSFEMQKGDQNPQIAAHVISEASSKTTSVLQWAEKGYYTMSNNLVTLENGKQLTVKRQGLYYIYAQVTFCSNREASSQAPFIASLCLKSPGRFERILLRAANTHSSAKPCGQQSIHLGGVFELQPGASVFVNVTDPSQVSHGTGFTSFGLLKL

cynomolgus monkey CCR8 = molecular target: T2, cynomolgus monkey CCR8 (cynomolgus monkey, UniProt G7NYJ2 1-355); experiment: KinExA, cell line overexpressing monkey CCR8; monkey CCR8 cell line
T2 construct: whole, on cells; also called CynoCCR8
Description: (§1) To 200 mg of PMMA hard beads was added 30 μg of Goat Anti-Human IgG Fc antibody, and the mixture was supplemented with a coating solution to 1.0 mL, with a buffer composition of 1×PBS, pH7.4, to ensure that the beads were completely suspended in the solution. After being spun at room temperature for 2 h, the beads were either allowed to settle naturally or centrifuged briefly at low speed, and the supernatant was removed. 1 mL of blocking buffer (1×PBS, pH7.4, containing 10 mg/mL BSA) was added to ensure that the beads were resuspended in the blocking solution, and the beads were spun at room temperature for 1 h. An appropriate concentration of PR005565, PR006155 or PR006166 was used as the 100% signal value, and PBS blank was used as the background value. The net signal values were detected using 0.5 μg/mL Alexa Fluor® 647 Goat Anti-Human IgG. The cell line overexpressing human or monkey CCR8 was collected by centrifugation at 1500 g for 5 min, washed 2 times with 2 PBS and centrifuged at 350 g. The cells were collected in a 1.5 mL centrifuge tube. 10 mL of 0.2 nM PR005565, PR006155 or PR006166 solution was prepared. The total cells were supplemented with 0.2 nM PR005565, PR006155 or PR006166 solution to 0.82 mL, and diluted in a 2-fold gradient with 0.2 nM PR005565, PR006155 or PR006166 as a buffer. […]

human CCR8 = molecular target: T3, human CCR8 (human, UniProt P51685 1-355); experiment: KinExA, cell line overexpressing human CCR8; human CCR8 cell line
T3 construct: whole, on cells; construct used for the overexpressing cell lines is not described; also called hCCR8
Description: as §1

T3 sequence (P51685 whole entry): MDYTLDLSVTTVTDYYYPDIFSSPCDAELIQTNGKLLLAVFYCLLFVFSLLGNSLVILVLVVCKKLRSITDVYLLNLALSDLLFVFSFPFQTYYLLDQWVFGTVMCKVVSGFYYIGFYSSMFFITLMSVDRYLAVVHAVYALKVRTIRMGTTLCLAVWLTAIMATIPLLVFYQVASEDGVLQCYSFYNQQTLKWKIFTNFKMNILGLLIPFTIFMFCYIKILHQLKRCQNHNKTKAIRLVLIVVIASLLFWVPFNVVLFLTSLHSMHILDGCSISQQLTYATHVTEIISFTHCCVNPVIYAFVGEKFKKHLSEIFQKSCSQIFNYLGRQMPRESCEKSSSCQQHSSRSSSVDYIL
T2 sequence (G7NYJ2 entry or part of it): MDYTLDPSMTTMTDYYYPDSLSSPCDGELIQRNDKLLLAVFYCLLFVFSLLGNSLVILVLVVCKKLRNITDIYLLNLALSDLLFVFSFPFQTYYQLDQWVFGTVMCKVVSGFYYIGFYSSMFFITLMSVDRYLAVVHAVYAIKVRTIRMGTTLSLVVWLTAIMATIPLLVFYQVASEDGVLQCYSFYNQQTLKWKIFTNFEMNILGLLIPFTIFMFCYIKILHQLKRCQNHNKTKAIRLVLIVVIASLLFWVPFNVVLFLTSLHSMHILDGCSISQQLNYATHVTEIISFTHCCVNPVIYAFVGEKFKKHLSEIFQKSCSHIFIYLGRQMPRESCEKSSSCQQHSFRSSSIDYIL

B1: PR005565 (antibody, human IgG1, kappa)
heavy: not shown
light: DIVMTQSPLSLPVTLGQPASISCRSSKSLLHSNAKIYLYWFQQRPGQSPRLLIYRMSNLASGVPDRFSGSGSGTDFTLKISRVEAEDVGVYYCMQHLEYPLTFGQGTKLEIKRTVAAPSVFIFPPSDEQLKSGTASVVCLLNNFYPREAKVQWKVDNALQSGNSQESVTEQDSKDSTYSLSSTLTLSKADYEKHKVYACEVTHQGLSSPVTKSFNRGEC
notes: IgG1 constant region; same VH/VL as PR004666
CD40LG
  MFI: 241
Cynomolgus monkey CCR8
  Kd: 0.177 nM
Human CCR8
  Kd: 0.13 nM
